From the RNAGym collection of RNA variant scans (doi:10.7554/elife.80360)

B1: HDV Ribozyme (parent)
chain: GGCCGGCAUGGUCCCAGCCUCCUCGCUGGCGCCGGCUGGGCAACAUUCCGAGGGGACCGUCCCCUCGGUAAUGGCGAAUGGGACCCA

Variants of: B1
Assay: self-cleavage, relative activity (ratio to wild type); higher = more cleavage; co-transcriptional
C4U A77C gave a self-cleavage of 0.0978.
For G5A G34A, the self-cleavage was 0.0978.
With G5A G34C the self-cleavage was 0.101.
C4G G59A gave a self-cleavage of 0.198.
C4G U46C gave a self-cleavage of 0.
For C4G U46G, the self-cleavage was 0.
Work on G5C C85U yielded a self-cleavage of 0.277.
With C4G G55A the self-cleavage was 0.305.
Variant C4U G38C has a self-cleavage of 0.116.
For C4U C32U, the self-cleavage was 0.525.
In the case of G5C A8U, the self-cleavage is reported as 0.0665.
G5C A8G showed a self-cleavage of 0.
With G5A C49G the self-cleavage was 0.237.
G5A U47G showed a self-cleavage of 0.0875.
Work on G5A G10U yielded a self-cleavage of 0.188.
Variant G5C C26G has a self-cleavage of 0.138.
In the case of C4U C24U, the self-cleavage is reported as 0.237.
For G5A C24G, the self-cleavage was 0.
C4U G11U showed a self-cleavage of 0.219.
Work on C4U C13G yielded a self-cleavage of 0.0449.
In the case of C4U A51U, the self-cleavage is reported as 0.85.
In the case of C4U A51G, the self-cleavage is reported as 0.467.
Work on C4U G81A yielded a self-cleavage of 0.136.
In the case of C4U G81U, the self-cleavage is reported as 0.0723.
G5A C30A showed a self-cleavage of 0.109.
Work on G5A C30G yielded a self-cleavage of 0.0426.
G5A G50U showed a self-cleavage of 0.143.
C4U G5C showed a self-cleavage of 0.166.
With C4U C19A the self-cleavage was 0.0678.
In the case of C4G G53U, the self-cleavage is reported as 0.424.
C4U G52C gave a self-cleavage of 0.776.
Variant C4U C84A has a self-cleavage of 0.712.
Variant C4U C84U has a self-cleavage of 0.514.
With C4U U72G the self-cleavage was 0.361.
Work on G5A C63U yielded a self-cleavage of 0.155.
C4U C58U gave a self-cleavage of 1.15.
For C4U C58A, the self-cleavage was 0.852.
C4U G28C showed a self-cleavage of 0.
C4G U47G gave a self-cleavage of 0.175.
C4G U72C gave a self-cleavage of 0.0426.
G5A G25A showed a self-cleavage of 0.
With C4G G52A the self-cleavage was 0.47.
C4G G52U gave a self-cleavage of 0.215.
Work on C4G G52C yielded a self-cleavage of 0.383.
G5A A77U showed a self-cleavage of 0.
Variant G5A A77C has a self-cleavage of 0.0504.
In the case of G5A U9A, the self-cleavage is reported as 0.332.
Work on G5C C18U yielded a self-cleavage of 0.142.
Work on G5A C85U yielded a self-cleavage of 0.142.
In the case of C4U C64A, the self-cleavage is reported as 0.639.
For C4U C64U, the self-cleavage was 0.695.
For C4U C57A, the self-cleavage was 1.08.
In the case of G5C C58A, the self-cleavage is reported as 0.162.
For C4U G34A, the self-cleavage was 0.772.
With G5C C36U the self-cleavage was 0.0978.
C4U A43C gave a self-cleavage of 0.578.
With G5A U46G the self-cleavage was 0.161.
In the case of G5C A16C, the self-cleavage is reported as 0.0875.
In the case of C4G G50C, the self-cleavage is reported as 0.237.
Variant C4G G50A has a self-cleavage of 0.415.
In the case of G5C C84U, the self-cleavage is reported as 0.119.
G5A C22U gave a self-cleavage of 0.0831.
In the case of G5A C22G, the self-cleavage is reported as 0.0554.
For G5A C13A, the self-cleavage was 0.0369.
Work on C4U C66U yielded a self-cleavage of 0.704.
C4U C66A showed a self-cleavage of 0.755.
G5C C75A gave a self-cleavage of 0.0536.
C4G G81A gave a self-cleavage of 0.0382.
With C4U A45C the self-cleavage was 0.475.
With C4U A45U the self-cleavage was 0.458.
Variant C4U A45G has a self-cleavage of 0.862.
For G5C C63A, the self-cleavage was 0.383.
G5C C63U gave a self-cleavage of 0.0437.
Work on G5C C63G yielded a self-cleavage of 0.
For G5A G31A, the self-cleavage was 0.
With G5C A56U the self-cleavage was 0.314.
G5C A56G gave a self-cleavage of 0.237.
C4U G59A showed a self-cleavage of 0.589.
With C4U G59U the self-cleavage was 0.973.
For C4U C85A, the self-cleavage was 0.341.
Variant C4U U46G has a self-cleavage of 0.277.
With C4U U46A the self-cleavage was 0.485.
C4G G76U gave a self-cleavage of 0.469.
For G5C A42G, the self-cleavage was 0.
With G5A G55A the self-cleavage was 0.237.
For G5A G39A, the self-cleavage was 0.181.
In the case of G5A G39U, the self-cleavage is reported as 0.101.
For C4U U23C, the self-cleavage was 0.571.
Variant C4U A70G has a self-cleavage of 0.541.
For G5C C86G, the self-cleavage was 0.113.
Work on C4U G10A yielded a self-cleavage of 0.35.
With G5A C62G the self-cleavage was 0.0594.
Work on G5A C86G yielded a self-cleavage of 0.13.
In the case of G5A A51C, the self-cleavage is reported as 0.312.
For G5A G59A, the self-cleavage was 0.407.
In the case of C4U G76U, the self-cleavage is reported as 0.831.
C4U G76C gave a self-cleavage of 0.984.
G5C C22A gave a self-cleavage of 0.
Variant C4G U65C has a self-cleavage of 0.18.
For G5C C33A, the self-cleavage was 0.26.
G5C C33G gave a self-cleavage of 1.43.
Variant C4G G68U has a self-cleavage of 0.227.
In the case of C4G G68C, the self-cleavage is reported as 0.475.
In the case of C4U C18U, the self-cleavage is reported as 0.323.
In the case of C4U U79G, the self-cleavage is reported as 0.185.
Work on G5A C21A yielded a self-cleavage of 0.0923.
For G5C C41A, the self-cleavage was 0.0665.
G5C C14A gave a self-cleavage of 0.0692.
Work on G5C C14U yielded a self-cleavage of 0.506.
With C4U C61G the self-cleavage was 0.394.
Variant C4U U69C has a self-cleavage of 0.755.
Variant C4U U69G has a self-cleavage of 0.831.
G5A U37A gave a self-cleavage of 0.
C4U G74U gave a self-cleavage of 0.163.
G5C A51G showed a self-cleavage of 0.262.
For G5A C36G, the self-cleavage was 0.
With C4U G35A the self-cleavage was 0.173.
Work on C4U G35C yielded a self-cleavage of 0.119.
Work on C4U C14G yielded a self-cleavage of 0.369.
With G5A A45G the self-cleavage was 0.196.
For G5A G17A, the self-cleavage was 0.172.
C4U C41G gave a self-cleavage of 0.374.
In the case of C4U C26G, the self-cleavage is reported as 0.72.
In the case of C4U U37C, the self-cleavage is reported as 0.772.
With C4G G73A the self-cleavage was 0.156.
G5A C26U gave a self-cleavage of 0.511.
C4G G67C showed a self-cleavage of 0.374.
C4U A42U gave a self-cleavage of 0.284.
With C4G U23C the self-cleavage was 0.208.
With G5A C7G the self-cleavage was 0.0875.
G5A G76A gave a self-cleavage of 0.229.
In the case of G5C C44G, the self-cleavage is reported as 0.
In the case of C4G U69C, the self-cleavage is reported as 0.308.
Work on C4G U69G yielded a self-cleavage of 0.317.
With C4U C48U the self-cleavage was 0.931.
In the case of G5C C24A, the self-cleavage is reported as 0.0811.
Work on C4U A71U yielded a self-cleavage of 0.776.
C4U G54A showed a self-cleavage of 0.791.
Variant C4U G54U has a self-cleavage of 0.789.
G5A A78G showed a self-cleavage of 0.178.
G5A A78C showed a self-cleavage of 0.106.
For C4U C22A, the self-cleavage was 0.188.
For G5C C66G, the self-cleavage was 0.151.
For C4U G6A, the self-cleavage was 0.532.
G5A A87G showed a self-cleavage of 0.252.
With C4U G53U the self-cleavage was 0.831.
G5C C21A gave a self-cleavage of 0.0831.
In the case of C4G G39C, the self-cleavage is reported as 0.0326.
Variant C4G G39A has a self-cleavage of 0.0183.
In the case of G5C A45C, the self-cleavage is reported as 0.0639.
For C4U U60A, the self-cleavage was 0.831.
With G5C A77U the self-cleavage was 0.
G5A C33G gave a self-cleavage of 0.0615.
G5A U69G showed a self-cleavage of 0.353.
C4U A83C showed a self-cleavage of 0.111.
Work on G5A G81U yielded a self-cleavage of 0.
Variant C4U G25C has a self-cleavage of 0.0773.
With G5A G11A the self-cleavage was 0.101.
In the case of G5A G11C, the self-cleavage is reported as 0.214.
With G5A U79C the self-cleavage was 0.0252.
G5C C48G gave a self-cleavage of 0.0755.
G5C C64G showed a self-cleavage of 0.0462.
Work on C4U yielded a self-cleavage of 0.758.
In the case of C4U G39U, the self-cleavage is reported as 0.58.
C4U G39A showed a self-cleavage of 0.136.
Work on C4U G80A yielded a self-cleavage of 0.242.
G5A G40A gave a self-cleavage of 0.0992.
